For the test, the target named is GST-Nup153 (human wt Nup153) (human). The experiment in a line: co-IP; competition: 200 ng P-rC with 200 ng GST-Nup153 and different concentrations of importin β together, 2 h at 37°C in transport buffer; anti-capsid beads; mAb414 blot.

“importin β (karyopherin) (from UniProt Q14974 1-876) (natural protein)” came in with a molar excess of importin β that prevented Nup153 binding to P-rC above 150 fold.

For the origin of these results see PMC2813275.
